Laboratory results reported in article PMC10769870, “Bdellovibrio bacteriovorus uses chimeric fibre proteins to recognize and invade a broad range of bacterial hosts” (Nature Microbiology, 2024).

How the values were obtained:
[1] = target: the molecule itself; experiment: crystal structure; Bd1334_(914–1,151), PACT B9, spacegroup R3, 1.4 Å
[2] = target: the molecule itself; experiment: crystal structure; Bd2740_(518–627), MIDAS F1, spacegroup P2_12_12_1, 2.6 Å
[3] = target: the molecule itself; experiment: crystal structure; Bd2439_(837–1,107), PACT H3 (P2_122_1) and MIDASplus E9 (P4); with ethylene glycol (1.6 Å) or GlcNAc–MurNAc (1.84 Å)
[4] = target: the molecule itself; experiment: crystal structure; Bd1334_(818–1,151), Morpheus C1, spacegroup C2, 2.6 Å
[5] = target: the molecule itself; experiment: crystal structure; Bd2133_(910–1,031), Morpheus A4, spacegroup P2_12_12_1, 1 Å
[6] = target: the molecule itself; experiment: crystal structure; Bd2734_(691–843), JCSG+ A3, spacegroup P2_1, 1.8 Å
[7] = target: the molecule itself; experiment: crystal structure; Bd3182_(632–922) crystallised by vapour diffusion at 18 °C in three forms (Morpheus C1, P2_1; Morpheus G12, I2; Proplex E3, another P2_1); the 1.1 Å form is described
[8] = target: the molecule itself; experiment: crystal structure; Bd2133_(662–1,031), native and selenomethionine-labelled, Morpheus B3, spacegroup P6_322, 2.5 Å

B1: Bd1334_(914–1,151) (domain or fragment, Bdellovibrio bacteriovorus HD100, UniProt Q6MNC5 914-1151, looked up)
chain: SAGTLAAPTAVTSGQSLTSLTAFAYNGTQYQSGGNASINFVATEAHTASAGGAKIIFNTTNNGATGSTEKVVIDQNGNVGVGVGAPTAKMDVNGGIKQPNYGIISAVRNSGGVTASMPWTNAYVLAHQGEMHQWVAGGPILQDSVTGCNAGPDAGVKFDSIATSWGGPYKVIFHTTGSNGAIHLEWSGWQVSLKNSAGTELAIGMGQVFATLHYDPAVSNWRVEHMFGRINNTNFTCW
notes: Bd1334 of Bdellovibrio bacteriovorus HD100, S914 to the C-terminus (W1151); also called Bd1334 from S914 onwards; source: E. coli BL21 RIPL (DE3), purified (Ni-NTA, TEV, Ni-NTA, Superdex 200)
[1]
  stoichiometry N: 3

B2: Bd2740_(518–627), tip of the NS74 MAT fibre protein Bd2740 (domain or fragment, Bdellovibrio bacteriovorus HD100, UniProt Q6MJN2 518-627, looked up)
chain: APCDSGWTLINKGDPFCAKQQSVTGTNFATSMTQCLNNGGKLCDLQEAVGMCQTGFIPSNTTLWISQLADNSSAHVINCTSGSWSAGFYGFGVTVDGSNPILPYCCKGRR
notes: Bd2740 of Bdellovibrio bacteriovorus HD100 (627 aa), C-type lectin fold tip, residues 518-627 (the results print 517-626); Synthesised gene in pET29a; an Ala-Ser linker follows the hexa-His tag; source: E. coli BL21 RIPL (DE3), purified (Ni-NTA, Superdex 200)
[2]
  stoichiometry N: 3

B3: Bd2439_(837–1,107), tip of the NS74 MAT fibre protein Bd2439 (domain or fragment, Bdellovibrio bacteriovorus HD100, UniProt Q6MKF5 837-1107, looked up)
chain: GGLDIVNNATGDDNRDDLNIRTYGATETSSLIMLRARGTASAPAAVQTGDRLGGVLFRGWNGTAWMGSGQILSVAEENFTTAVKTNLQFHVGGAGEAMRISNTGNVGIGTTTTTEKLNVQGNVAVSGEITSVRSWGIKRGPTSFSANYINVWNSGYHVGSSIDCTTSTTGCRILKAGTYEIRCVQRAGTSGNSVYVGIALNGDRTALESRNDVLWNHSHTAYSGSYTESNFMGTLSANDLITCGAPVNTMAADLVYAVPAYNGTMQIKRVD
notes: Bd2439 of Bdellovibrio bacteriovorus HD100, G837-D1107 (β-helix N850-V968, R969 linker, TNF-like tip S970-D1107); pET26b construct; source: E. coli BL21 RIPL (DE3), purified (Ni-NTA, Superdex 200)
[3]
  stoichiometry N: 3

B4: Bd1334_(818–1,151), tip of the NS74 MAT fibre protein Bd1334 (domain or fragment, Bdellovibrio bacteriovorus HD100, UniProt Q6MNC5 818-1151, looked up)
chain: SSAETDFATAVNGNLRFYTAAAGTDSERMRITGSGLVGIGTPAPAVPLQVATRVPSSAVHPNRAGIQAVGEGTDVGGRISALVSSTIEMATFSGYQSAGTLAAPTAVTSGQSLTSLTAFAYNGTQYQSGGNASINFVATEAHTASAGGAKIIFNTTNNGATGSTEKVVIDQNGNVGVGVGAPTAKMDVNGGIKQPNYGIISAVRNSGGVTASMPWTNAYVLAHQGEMHQWVAGGPILQDSVTGCNAGPDAGVKFDSIATSWGGPYKVIFHTTGSNGAIHLEWSGWQVSLKNSAGTELAIGMGQVFATLHYDPAVSNWRVEHMFGRINNTNFTCW
notes: Bd1334 of Bdellovibrio bacteriovorus HD100, S818 to the C-terminus (W1151); The cloning paragraph prints this construct as Bd1334_(818–1,031); everywhere else it is 818–1,151; source: E. coli BL21 RIPL (DE3), purified (Ni-NTA, TEV, Ni-NTA, Superdex 200)
[4]
  stoichiometry N: 3

B5: Bd2133_(910–1,031), tip-only variant of Bd2133 (domain or fragment, Bdellovibrio bacteriovorus HD100, UniProt Q6ML84 910-1031, looked up)
chain: AATWTSLGLTSLGAVSMTTTTEQSFTLPVAAQTASQILVYLRCHSGNASTTGADDIRIYTKEGAATYDHYLLMFPYAGQGAVGYNSDSFWLPKTSDNKIYLAHSMAPGSANSGCNFYITGYK
notes: Bd2133 of Bdellovibrio bacteriovorus HD100, β-sandwich tip domain, A910 to the C-terminus (1031); Made by deletion from the plasmid of Bd2133_(662–1,031); also called tip-only variant (A910 onwards); source: E. coli BL21 RIPL (DE3), purified (Ni-NTA, TEV, Ni-NTA, Superdex 200)
[5]
  binding result: binds

B6: Bd2734_(691–843), tip-only variant of the NS74 MAT fibre protein Bd2734 (domain or fragment, Bdellovibrio bacteriovorus HD100, UniProt Q6MJN8 691-843, looked up)
chain: TSTLMGSLTMLGKAGCQWEHANTSFASFSNVVACNTATVTGLASAPTEGKIPGIRFANLPAGDYELTVLIFSMYPVDAGVYCRYRLWDGTNFSGMAGAYESEIYQMTGLFSYATDQTNLTFYVQAQTLTATKNCRADITVPGQDKMQIYLKKL
notes: Bd2734 of Bdellovibrio bacteriovorus HD100 (843 aa), TNF-like tip, T691-L843; pET26b construct; The count of three copies rests on the discussion's word that trimerization is invariant in the six solved MATs; source: E. coli BL21 RIPL (DE3), purified (Ni-NTA, Superdex 200)
[6]
  binding result: binds

B7: Bd3182_(632–782), mature tip region of the MAT (mosaic adhesive trimer) fibre protein Bd3182 (domain or fragment, Bdellovibrio bacteriovorus HD100, UniProt Q6MIH5 632-782, looked up)
chain: GTNDAFSLSFETNNTPRMTIDDVGRVGVGTTAPTSALHVIGTGEVARFVTSATGGVVIDSTALNYNPSLIYRKTNINRWSMMVNAASETGGNAGSNLSILRYDDTGATLGAAVTIDRASGFFGINTAAPAYNIHVTGTAGLSTGSAWTVAS
notes: Bd3182 of Bdellovibrio bacteriovorus HD100, S74-group MAT fibre protein; expressed as residues 632-922, the S74 chaperone/protease domain cuts itself off at catalytic residue S782; the fibre part, labelled 632-782, was crystallised; the model traces P647 to A781; The methods name the cloned construct once as 668-922 and elsewhere as 632-922; also called Bd3182_(632–922) (construct before …)
[7]
  stoichiometry N: 3

B8: Bd2133_(662–1,031), tip of the NS74 MAT fibre protein Bd2133 (domain or fragment, Bdellovibrio bacteriovorus HD100, UniProt Q6ML84 662-1031, looked up)
chain: NSSGALGLSTSGSERMRIDTSGNLGLGTAAPTSALHVERTQDADTTVQVRNTHDTGTAAGARFIASNEKSGIWFGISGTSNTNTGLGSPGDAYIYNAAGTATGKNLNVINNQTGNIHFFAGSTATGTPRMTITNTGLVGINTAAPLQKLHVENGNMVITGTAPAYQLKENDTTDQNWQMGINNGNLRFATQNDALNSSSDKVVISQAGNVGIGATAPTAKLEVAGTIHSTSGGIKFPDGSVQTTAASGAATWTSLGLTSLGAVSMTTTTEQSFTLPVAAQTASQILVYLRCHSGNASTTGADDIRIYTKEGAATYDHYLLMFPYAGQGAVGYNSDSFWLPKTSDNKIYLAHSMAPGSANSGCNFYITGYK
notes: Bd2133 of Bdellovibrio bacteriovorus HD100, N662 to the C-terminus (K1031); A selenomethionine-labelled form was also crystallised for phasing; source: E. coli BL21 RIPL (DE3), purified (Ni-NTA, TEV, Ni-NTA, Superdex 200)
[8]
  stoichiometry N: 3
